This experiment deals with CD137 on activated CEMT cells (UniProt Q07011). The experiment is described as follows: Flow cytometry on PMA/ionomycin-activated CEMT cells, protein at 0.48 nM, detection anti-human Fc-FITC; lower panel 'Cell binding - CD137'. Background: A flow cytometer gives signals particle by particle.

In turn, CET (antibody) returned an MFI of 1.07.
